Laboratory results: patent publication US20240270846A1 (published 2024)
Where a chain is given by its changes, count along the chain named.

B1: CE115HA000 H chain altered form H35A (antibody, human IgG1, kappa, L234A L235A, N297A, name in Kabat numbering)
heavy: QVQLVESGGGVVQPGRSLRLSCAASGFTFSNAWMAWVRQAPGKGLEWVAQIKAKSNNYATYYAESVKGRFTISRDDSKNSLYLQMNSLKTEDTAVYYCRYVHYGAYYGVDAWGQGTTVTVSSASTKGPSVFPLAPSSKSTSGGTAALGCLVKDYFPEPVTVSWNSGALTSGVHTFPAVLQSSGLYSLSSVVTVPSSSLGTQTYICNVNHKPSNTKVDKKVEPKSCDKTHTCPPCPAPEAAGGPSVFLFPPKPKDTLMISRTPEVTCVVVDVSHEDPEVKFNWYVDGVEVHNAKTKPREEQYASTYRVVSVLTVLHQDWLNGKEYKCKVSNKALPAPIEKTISKAKGQPREPQVYTLPPSRCELTKNQVSLSCAVKGFYPSDIAVEWESNGQPENNYKTTPPVLDSDGSFFLVSKLTVDKSRWQQGNVFSCSVMHEALHNHYTQKSLSLSPDYKDDDDK
chain: EPKSSDKTHTCPPCPAPELLGGPSVFLFPPKPKDTLMISRTPEVTCVVVDVSHEDPEVKFNWYVDGVEVHNAKTKPREEQYNSTYRVVSVLTVLHQDWLNGKEYKCKVSNKALPAPIEKTISKAKGQPREPQVCTLPPSRDELTKNQVSLWCLVKGFYPSDIAVEWESNGQPENNYKTTPPVLDSDGSFFLYSKLTVDKSRWQQGNVFSCSVMHEALHNRYTQKSLSLSP
light: DIVMTQSPLSLPVTPGEPASISCRSSQSLVHSNRNTYLHWYQQKPGQAPRLLIYKVSNRFSGVPDRFSGSGSGTDFTLKISRVEAEDVGVYYCGQGTQVPYTFGQGTKLEIKRTVAAPSVFIFPPSDEQLKSGTASVVCLLNNFYPREAKVQWKVDNALQSGNSQESVTEQDSKDSTYSLSSTLTLSKADYEKHKVYACEVTHQGLSSPVTKSFNRGEC
notes: one-arm antibody
B2: CE115HA000 H chain altered form F29V (antibody, human IgG1, kappa, L234A L235A, N297A, name in Kabat numbering)
heavy: B1 heavy with F29V, A35H
chain: B1 chain
light: B1 light
notes: one-arm antibody
B3: CE115HA000 H chain altered form A60D (antibody, human IgG1, kappa, L234A L235A, N297A, name in Kabat numbering)
heavy: B1 heavy with A35H, A63D
chain: B1 chain
light: B1 light
notes: one-arm antibody
B4: CE115HA000 H chain altered form A32Y (antibody, human IgG1, kappa, L234A L235A, N297A, name in Kabat numbering)
heavy: B1 heavy with A32Y, A35H
chain: B1 chain
light: B1 light
notes: one-arm antibody
B5: CE115HA000 H chain altered form A56N (antibody, human IgG1, kappa, L234A L235A, N297A, name in Kabat numbering)
heavy: B1 heavy with A35H, A59N
chain: B1 chain
light: B1 light
notes: one-arm antibody
B6: CE115HA000 H chain altered form A52aV (antibody, human IgG1, kappa, L234A L235A, N297A, name in Kabat numbering)
heavy: B1 heavy with A35H, A53V
chain: B1 chain
light: B1 light
notes: one-arm antibody
B7: CE115HA000 H chain altered form A52aY (antibody, human IgG1, kappa, L234A L235A, N297A, name in Kabat numbering)
heavy: B1 heavy with A35H, A53Y
chain: B1 chain
light: B1 light
notes: one-arm antibody
B8: CE115HA000 H chain altered form A52aS (antibody, human IgG1, kappa, L234A L235A, N297A, name in Kabat numbering)
heavy: B1 heavy with A35H, A53S
chain: B1 chain
light: B1 light
notes: one-arm antibody
B9: CE115HA000 H chain altered form A56Y (antibody, human IgG1, kappa, L234A L235A, N297A, name in Kabat numbering)
heavy: B1 heavy with A35H, A59Y
chain: B1 chain
light: B1 light
notes: one-arm antibody
B10: CE115HA000 H chain altered form E61P (antibody, human IgG1, kappa, L234A L235A, N297A, name in Kabat numbering)
heavy: B1 heavy with A35H, E64P
chain: B1 chain
light: B1 light
notes: one-arm antibody
B11: CE115HA000 H chain altered form A56G (antibody, human IgG1, kappa, L234A L235A, N297A, name in Kabat numbering)
heavy: B1 heavy with A35H, A59G
chain: B1 chain
light: B1 light
notes: one-arm antibody
B12: CE115HA000 H chain altered form A56L (antibody, human IgG1, kappa, L234A L235A, N297A, name in Kabat numbering)
heavy: B1 heavy with A35H, A59L
chain: B1 chain
light: B1 light
notes: one-arm antibody
B13: CE115HA000 H chain altered form E61D (antibody, human IgG1, kappa, L234A L235A, N297A, name in Kabat numbering)
heavy: B1 heavy with A35H, E64D
chain: B1 chain
light: B1 light
notes: one-arm antibody
B14: CE115HA000 H chain altered form A56K (antibody, human IgG1, kappa, L234A L235A, N297A, name in Kabat numbering)
heavy: B1 heavy with A35H, A59K
chain: B1 chain
light: B1 light
notes: one-arm antibody
B15: CE115HA000 H chain altered form A56Q (antibody, human IgG1, kappa, L234A L235A, N297A, name in Kabat numbering)
heavy: B1 heavy with A35H, A59Q
chain: B1 chain
light: B1 light
notes: one-arm antibody
B16: CE115HA000 H chain altered form E61A (antibody, human IgG1, kappa, L234A L235A, N297A, name in Kabat numbering)
heavy: B1 heavy with A35H, E64A
chain: B1 chain
light: B1 light
notes: one-arm antibody
B17: CE115HA000 H chain altered form A52aD (antibody, human IgG1, kappa, L234A L235A, N297A, name in Kabat numbering)
heavy: B1 heavy with A35H, A53D
chain: B1 chain
light: B1 light
notes: one-arm antibody
B18: CE115HA000 H chain altered form A52aG (antibody, human IgG1, kappa, L234A L235A, N297A, name in Kabat numbering)
heavy: B1 heavy with A35H, A53G
chain: B1 chain
light: B1 light
notes: one-arm antibody
B19: CE115HA000 H chain altered form A52aE (antibody, human IgG1, kappa, L234A L235A, N297A, name in Kabat numbering)
heavy: B1 heavy with A35H, A53E
chain: B1 chain
light: B1 light
notes: one-arm antibody
B20: CE115HA000 H chain altered form A56D (antibody, human IgG1, kappa, L234A L235A, N297A, name in Kabat numbering)
heavy: B1 heavy with A35H, A59D
chain: B1 chain
light: B1 light
notes: one-arm antibody
B21: CE115HA000 H chain altered form A60E (antibody, human IgG1, kappa, L234A L235A, N297A, name in Kabat numbering)
heavy: B1 heavy with A35H, A63E
chain: B1 chain
light: B1 light
notes: one-arm antibody
B22: CE115HA000 H chain altered form E61Q (antibody, human IgG1, kappa, L234A L235A, N297A, name in Kabat numbering)
heavy: B1 heavy with A35H, E64Q
chain: B1 chain
light: B1 light
notes: one-arm antibody
B23: CE115HA000 H chain altered form A52aP (antibody, human IgG1, kappa, L234A L235A, N297A, name in Kabat numbering)
heavy: B1 heavy with A35H, A53P
chain: B1 chain
light: B1 light
notes: one-arm antibody

Biological target: T1, CD3 epsilon homodimer protein (UniProt P07766 23-126)
T1 construct: also called CD3 (CD3 epsilon)
T1 sequence (P07766 23-126): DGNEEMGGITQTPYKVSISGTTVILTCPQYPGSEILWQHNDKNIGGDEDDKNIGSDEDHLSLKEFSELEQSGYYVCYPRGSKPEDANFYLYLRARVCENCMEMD
Assay: SPR Biacore T200, CD3 epsilon homodimer on chip, antibody as analyte;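 also: homodimer amine-coupled to a CM4 sensor chip, run at 25 °C in HBS-EP+ buffer, with kinetic parameters derived in Biacore T200 Evaluation Software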

| Binder | KD ratio (KD of CE115HA000 / KD of altered form) |
| --- | --- |
| B1 | 25 |
| B2 | 2.94 |
| B3 | 0.94 |
| B4 | 2.11 |
| B5 | 0.84 |
| B6 | 0.95 |
| B7 | 7.71 |
| B8 | 0.82 |
| B9 | 0.63 |
| B10 | 0.82 |
| B11 | 0.59 |
| B12 | 0.77 |
| B13 | 0.9 |
| B14 | 1.32 |
| B15 | 0.74 |
| B16 | 0.94 |
| B17 | 1.35 |
| B18 | 0.61 |
| B19 | 0.89 |
| B20 | 0.71 |
| B21 | 0.88 |
| B22 | 0.85 |
| B23 | 5 |
